Patent US20230416363A1 (KADMON, published 2023)

Assays:
[1] = molecular target: T1, mPD1 (soluble, ELISA of Examples 20 and 24) (mouse, UniProt Q02242 25-167, limits assumed); test: blocking ELISA, mPD1 to mPDL1
T1 construct: also called Biotin-mPD1
T1 sequence (looked up): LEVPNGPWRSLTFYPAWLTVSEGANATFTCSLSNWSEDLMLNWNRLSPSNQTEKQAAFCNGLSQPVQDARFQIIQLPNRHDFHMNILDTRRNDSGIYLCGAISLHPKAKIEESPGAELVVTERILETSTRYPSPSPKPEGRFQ

hPD-1-Fc = molecular target: T2, hPD-1-Fc (human, UniProt Q15116 25-167); test: SPR Biacore, hPD1-Fc
T2 construct: domain: IgV domain; also called human PD-1-Fc; not shown: human IgG1 Fc
T2 sequence (Q15116 25-167 limits assumed): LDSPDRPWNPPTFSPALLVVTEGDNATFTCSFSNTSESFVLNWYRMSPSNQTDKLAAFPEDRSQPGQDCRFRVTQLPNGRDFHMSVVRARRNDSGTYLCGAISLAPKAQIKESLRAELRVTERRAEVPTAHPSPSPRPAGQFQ

[2] = molecular target: T3, human PD-1 expressed on cells (human, UniProt Q15116 25-288); test: flow cytometry, hPD1-293 cells
T3 construct: whole, on cells
T3 sequence (Q15116 25-288): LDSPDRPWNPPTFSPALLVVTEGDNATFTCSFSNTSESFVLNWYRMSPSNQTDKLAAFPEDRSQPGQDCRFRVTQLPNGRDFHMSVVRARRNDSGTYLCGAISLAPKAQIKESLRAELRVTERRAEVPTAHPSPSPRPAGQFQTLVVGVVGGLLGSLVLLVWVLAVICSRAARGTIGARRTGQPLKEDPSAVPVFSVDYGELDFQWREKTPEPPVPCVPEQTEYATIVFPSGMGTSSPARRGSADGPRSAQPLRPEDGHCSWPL

[3] = molecular target: T4, hPD1 (soluble, ELISA of Example 20) (human, UniProt Q15116 25-167, limits assumed); test: blocking ELISA, hPD1 to hPDL1
T4 sequence (Q15116 25-167 limits assumed): as the sequence (Q15116 25-167 limits assumed) above

[4] = molecular target: T5, mouse PD-1 expressed on cells (mouse, UniProt Q02242 25-288); test: flow cytometry, mPD1-293 cells
T5 construct: whole, on cells
T5 sequence (looked up): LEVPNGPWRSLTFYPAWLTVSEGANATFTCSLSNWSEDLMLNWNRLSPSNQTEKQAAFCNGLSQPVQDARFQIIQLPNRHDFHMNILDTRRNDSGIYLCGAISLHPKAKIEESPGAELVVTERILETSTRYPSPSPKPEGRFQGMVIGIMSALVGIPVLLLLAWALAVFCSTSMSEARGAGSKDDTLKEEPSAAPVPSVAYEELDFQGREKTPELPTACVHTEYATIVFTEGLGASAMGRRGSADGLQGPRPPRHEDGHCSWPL

[5] = molecular target: T1, mPD1 (soluble, ELISA of Examples 20 and …); test: ELISA, mPD1
[6] = molecular target: T4, hPD1 (soluble, ELISA of Example 20); test: ELISA, hPD1
[7] = molecular target: T1, mPD1 (soluble, ELISA of Examples 20 and …); test: ELISA, biotin-mPD1 on streptavidin
mPD-1-Fc [8] = molecular target: T6, mPD-1-Fc (mouse; human, UniProt Q02242 25-167, limits assumed); test: SPR Biacore, mPD1-Fc
T6 construct: domain: IgV domain; not shown: human IgG1 Fc
T6 sequence (looked up): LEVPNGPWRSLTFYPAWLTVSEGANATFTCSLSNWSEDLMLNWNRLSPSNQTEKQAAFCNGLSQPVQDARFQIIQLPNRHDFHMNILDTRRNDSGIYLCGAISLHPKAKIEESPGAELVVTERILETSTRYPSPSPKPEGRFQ

mPD-1-his [9] = molecular target: T7, mPD-1-his (mouse, UniProt Q02242 25-167, limits assumed); test: SPR Biacore, mPD1-his
T7 construct: domain: IgV domain
T7 sequence: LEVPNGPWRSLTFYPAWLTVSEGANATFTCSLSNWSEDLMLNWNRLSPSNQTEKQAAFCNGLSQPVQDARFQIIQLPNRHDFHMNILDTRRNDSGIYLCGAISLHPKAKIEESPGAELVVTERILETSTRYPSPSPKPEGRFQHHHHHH

[10] = molecular target: T5, mouse PD-1 expressed on cells; test: flow cytometry, mPD1-eff cells
[11] = molecular target: T5, mouse PD-1 expressed on cells; test: flow cytometry on mPD-1-HEK293 cells
[12] = molecular target: T5, mouse PD-1 expressed on cells; test: cell-based or functional assay
mPD-1-his [13] = molecular target: T7, mPD-1-his; test: kinetics (Ka/Kd/KD; method not named), mPD-1-his
[14] = molecular target: T1, mPD1 (soluble, ELISA of Examples 20 and …); test: ELISA, dose-response binding to mPD-1
[15] = molecular target: T1, mPD1 (soluble, ELISA of Examples 20 and …); test: competition ELISA, blocking of mPD-L1 binding to mPD-1
mPD-1-Fc [16] = molecular target: T6, mPD-1-Fc; test: kinetics, mPD-1-Fc (off rate outside the machine limit)

Binder | EC50 (read off the curve) [11] [nM] | EC50 (read off the curve) [12] [nM] | Kd (mPD-1-his [13]) [nM] | EC50 (read off the curve) [14] [nM] | IC50 (read off the curve) [15] [nM] | Kd (mPD-1-Fc [16]) [nM] | also measured
m2A1 (antibody, V domains shown, R3A9 derivative; also called m2AM (apparent misprint)) VH: QVQLVQSGAEVKKPGASVKVSCKASGHTFTSYYIHWVRQAPGQGLEWMGIINPSGGSTSYAQKFQGRVTMTRDTSTSTVYMELSSLRSEDTAVYYCARDRAYGGAGDYWGQGTLVTVSS VL: DIQMTQSPSSLSASVGDRVTITCRASRGISSWLAWYQQKPGKAPKLLIYAASSLQSGVPSRFSGSGSGTDFTLTISSLQPEDFATYYCQQSYSPPWTFGQGTKVEIK | – | – | – | – | – | – | IC50 [1]: 0.442 nM; Kd (hPD-1-Fc): 1.67 nM; koff (hPD-1-Fc): 0.000401 s⁻¹; kon (hPD-1-Fc): 240000 M⁻¹ s⁻¹; EC50 [2]: 0.987 nM; IC50 [3]: 6.01 nM; EC50 [4]: 0.433 nM; EC50 [5]: 0.304 nM; EC50 [6]: 0.146 nM; EC50 [7]: 0.14 nM; Kd (mPD-1-Fc [8]): 2.73 nM; koff (mPD-1-Fc [8]): 0.000905 s⁻¹; kon (mPD-1-Fc [8]): 333000 M⁻¹ s⁻¹; Kd (mPD-1-his [9]): 2.83 nM; koff (mPD-1-his [9]): 0.00107 s⁻¹; kon (mPD-1-his [9]): 375000 M⁻¹ s⁻¹; EC50 [10]: 0.253 nM
2C-m3A7/IL-15 (other, antibody-cytokine fusion) light: DIQMTQSPSSLSASVGDRVTITCRASRSISNWLAWYQQKPGKAPKLLIYAASSLQSGVPSRFSGSGSGTDFTLTISSLQPEDFATYYCQQSYSAPVTFGQGTKVEIKRADAAPTVSIFPPSSEQLTSGGASVVCFLNNFYPKDINVKWKIDGSERQNGVLNSWTDQDSKDSTYSMSSTLTLTKDEYERHNSYTCEATHKTSTSPIVKSFNRNEC heavy: QVQLVQSGAEVKKPGASVKVSCKASGHTFTSYYIHWVRQAPGQGLEWMGIINPSGGSTSYAQKFQGRVTMTRDTSTSTVYMELSSLRSEDTAVYYCARDRAYGGAGDYWGQGTLVTVSSAKTTAPSVYPLAPVCGDTTGSSVTLGCLVKGYFPEPVTLTWNSGSLSSGVHTFPAVLQSDLYTLSSSVTVTSSTWPSQSITCNVAHPASSTKVDKKIEPRGPTIKPCPPCKCPAPNAAGGPSVFIFPPKIKDVLMISLSPIVTCVVVDVSEDDPDVQISWFVNNVEVHTAQTQTHREDYNSTLRVVSALPIQHQDWMSGKEFKCKVNNKDLGAPIERTISKPKGSVRAPQVYVLPPPEEEMTKKQVTLTCMVTDFMPEDIYVEWTNNGKTELNYKNTEPVLDSDGSYFMYSKLRVEKKNWVERNSYSCSVVHEGLHNHHTTKSFSRTPGSCPPPVSIEHADIRVKNYSVNSRERYVCNSGFKRKAGTSTLIECVINKNTNVAHWTTPSLKCIRDPALVHQRPAPPSGGSGGGGSGGGSGGGGSLQNWIDVRYDLEKIESLIQSIHIDTTLYTDSDFHPSCKVTAMNCFLLELQVILHEYSNMTLNETVRNVLYLANSTLSSNKNVAESGCKECEELEEKTFTEFLQSFIRIVQMFINTS | ~1 | ~0.7 | 0.247 | ~0.2 | ~0.2 | 0.0593 | –
1C-m3A7/IL-15 (other, antibody-cytokine fusion) light: DIQMTQSPSSLSASVGDRVTITCRASRSISNWLAWYQQKPGKAPKLLIYAASSLQSGVPSRFSGSGSGTDFTLTISSLQPEDFATYYCQQSYSAPVTFGQGTKVEIKRADAAPTVSIFPPSSEQLTSGGASVVCFLNNFYPKDINVKWKIDGSERQNGVLNSWTDQDSKDSTYSMSSTLTLTKDEYERHNSYTCEATHKTSTSPIVKSFNRNEC heavy 1: QVQLVQSGAEVKKPGASVKVSCKASGHTFTSYYIHWVRQAPGQGLEWMGIINPSGGSTSYAQKFQGRVTMTRDTSTSTVYMELSSLRSEDTAVYYCARDRAYGGAGDYWGQGTLVTVSSAKTTAPSVYPLAPVCGDTTGSSVTLGCLVKGYFPEPVTLTWNSGSLSSGVHTFPAVLQSDLYTLSSSVTVTSSTWPSQSITCNVAHPASSTKVDKKIEPRGPTIKPCPPCKCPAPNAAGGPSVFIFPPKIKDVLMISLSPIVTCVVVDVSEDDPDVQISWFVNNVEVHTAQTQTHREDYNSTLRVVSALPIQHQDWMSGKEFKCKVNNKDLGAPIERTISKPKGSVRAPQVYVYPPPEEEMTKKQVTLTCMVTDFMPEDIYVEWTNNGKTELNYKNTEPVLDSDGSYAMVSKLRVEKKNWVERNSYSCSVVHEGLHNHHTTKSFSRTPGK heavy 2: QVQLVQSGAEVKKPGASVKVSCKASGHTFTSYYIHWVRQAPGQGLEWMGIINPSGGSTSYAQKFQGRVTMTRDTSTSTVYMELSSLRSEDTAVYYCARDRAYGGAGDYWGQGTLVTVSSAKTTAPSVYPLAPVCGDTTGSSVTLGCLVKGYFPEPVTLTWNSGSLSSGVHTFPAVLQSDLYTLSSSVTVTSSTWPSQSITCNVAHPASSTKVDKKIEPRGPTIKPCPPCKCPAPNAAGGPSVFIFPPKIKDVLMISLSPIVTCVVVDVSEDDPDVQISWFVNNVEVHTAQTQTHREDYNSTLRVVSALPIQHQDWMSGKEFKCKVNNKDLGAPIERTISKPKGSVRAPQVYVLPPPEEEMTKKQVTLLCMVTDFMPEDIYVEWTNNGKTELNYLNWEPVLDSDGSYFMYSKLRVEKKNWVERNSYSCSVVHEGLHNHHTTKSFSRTPGSCPPPVSIEHADIRVKNYSVNSRERYVCNSGFKRKAGTSTLIECVINKNTNVAHWTTPSLKCIRDPALVHQRPAPPSGGSGGGGSGGGSGGGGSLQNWIDVRYDLEKIESLIQSIHIDTTLYTDSDFHPSCKVTAMNCFLLELQVILHEYSNMTLNETVRNVLYLANSTLSSNKNVAESGCKECEELEEKTFTEFLQSFIRIVQMFINTS | ~0.7 | ~0.6 | 0.296 | ~0.1 | ~0.3 | 0.0927 | –
2N-m3A7/IL-15 (other, antibody-cytokine fusion) light: DIQMTQSPSSLSASVGDRVTITCRASRSISNWLAWYQQKPGKAPKLLIYAASSLQSGVPSRFSGSGSGTDFTLTISSLQPEDFATYYCQQSYSAPVTFGQGTKVEIKRADAAPTVSIFPPSSEQLTSGGASVVCFLNNFYPKDINVKWKIDGSERQNGVLNSWTDQDSKDSTYSMSSTLTLTKDEYERHNSYTCEATHKTSTSPIVKSFNRNEC heavy: ITCPPPVSIEHADIRVKNYSVNSRERYVCNSGFKRKAGTSTLIECVINKNTNVAHWTTPSLKCIRDPALVHQRPAPPSGGSGGGGSGGGSGGGGSLQNWIDVRYDLEKIESLIQSIHIDTTLYTDSDFHPSCKVTAMNCFLLELQVILHEYSNMTLNETVRNVLYLANSTLSSNKNVAESGCKECEELEEKTFTEFLQSFIRIVQMFINTSGGGGSGGGGSGGGGSGGGGSGGGGSGGGGSQVQLVQSGAEVKKPGASVKVSCKASGHTFTSYYIHWVRQAPGQGLEWMGIINPSGGSTSYAQKFQGRVTMTRDTSTSTVYMELSSLRSEDTAVYYCARDRAYGGAGDYWGQGTLVTVSSAKTTAPSVYPLAPVCGDTTGSSVTLGCLVKGYFPEPVTLTWNSGSLSSGVHTFPAVLQSDLYTLSSSVTVTSSTWPSQSITCNVAHPASSTKVDKKIEPRGPTIKPCPPCKCPAPNAAGGPSVFIFPPKIKDVLMISLSPIVTCVVVDVSEDDPDVQISWFVNNVEVHTAQTQTHREDYNSTLRVVSALPIQHQDWMSGKEFKCKVNNKDLGAPIERTISKPKGSVRAPQVYVLPPPEEEMTKKQVTLTCMVTDFMPEDIYVEWTNNGKTELNYKNTEPVLDSDGSYFMYSKLRVEKKNWVERNSYSCSVVHEGLHNHHTTKSFSRTPGK | ~1 | ~2 | 0.283 | ~0.3 | ~0.3 | 0.00909 | –
